Measured values from patent US20200109196A1 (MOGAM INSTITUTE FOR BIOMEDICAL RESEARCH, published 2020).

Key:
Assay in all cases: flow cytometry on transfected HEK293 cells (GFP+ gate), PE goat anti-huIgG4 [a]
[1] = molecular target: T1, CEACAM6 expressed on the surface of HEK293 cells (human, UniProt P40199 35-320)
T1 construct: whole, on cells; GFP-tagged clone; also called CEACAM6-GFP
T1 sequence (looked up): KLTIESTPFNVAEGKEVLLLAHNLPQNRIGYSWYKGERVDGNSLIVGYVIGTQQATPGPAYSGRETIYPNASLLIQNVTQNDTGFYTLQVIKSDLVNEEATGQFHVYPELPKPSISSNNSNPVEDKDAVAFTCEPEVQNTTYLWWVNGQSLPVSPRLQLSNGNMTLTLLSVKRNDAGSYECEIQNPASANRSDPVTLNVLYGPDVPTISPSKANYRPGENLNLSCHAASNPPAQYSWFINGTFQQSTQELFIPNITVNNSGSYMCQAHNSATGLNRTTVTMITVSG
Description: (§1) HEK293 cells were added with 10 μg of each pEF1α-AcGFP-N1 vector (Clontech, Cat. No. 631973) as a control vector, CEACAM1, CEACAM3, CEACAM5, CEACAM6 and CEACAM8 plasmid vectors, followed by transfection under the condition of pulse voltage 1,100 V, pulse width 20 ms and pulse number 2. After 48 hours of transfection, GFP expression was confirmed by fluorescence microscopy. The cells were detached by treatment with 1 ml of TrypLE Express Solution (ThermoFisher Scientific; Cat. No. 12605010), resuspended in 9 ml of DMEM (Gibco, Cat. No. 11995-065) supplemented with 10% (v/v) FBS, and centrifuged at 1,200 rpm for 5 minutes, to remove the resulting supernatant.
(§2) After washing once with PBS, the cells were resuspended in a FACS buffer to obtain a concentration of 5×10⁵ cells/100 μl. Human Fc Block solution was added to the samples at 1 μl/sample, which were incubated at 4° C. for 10 minutes. The cells were treated with hulgG4 or one of the anti-CEACAM1 clones listed at 1 μg/5×10⁵ cells, which were incubated at 4° C. for 10 minutes. After washing with FACS buffer, the PE-labeled goat-anti-huIgG4 antibodies were diluted at a ratio of 1:200 in a FACS buffer, and added to the samples at 100 μl/sample, which were incubated at 4° C. for 30 minutes. The samples were filled with a FACS buffer up to 200 μl, and then centrifuged at 1,200 rpm for 5 minutes, to remove the resulting supernatant. The fixation buffer (300 μl) was added to resuspend the cells. The cells expressing GFP were selected in the FACS LSR-Fortessa device, and the expression of CEACAM members were evaluated respectively using the antibody specific to each CEACAM member (Table 3). Also, the binding of anti-CEACAM1 antibodies was evaluated by PE fluorescence channel and analyzed using the FlowJo software.

[2] = molecular target: T2, CEACAM3 expressed on the surface of HEK293 cells (human, UniProt P40198 35-252)
T2 construct: whole, on cells; GFP-tagged clone; also called CEACAM3-GFP
T2 sequence (looked up): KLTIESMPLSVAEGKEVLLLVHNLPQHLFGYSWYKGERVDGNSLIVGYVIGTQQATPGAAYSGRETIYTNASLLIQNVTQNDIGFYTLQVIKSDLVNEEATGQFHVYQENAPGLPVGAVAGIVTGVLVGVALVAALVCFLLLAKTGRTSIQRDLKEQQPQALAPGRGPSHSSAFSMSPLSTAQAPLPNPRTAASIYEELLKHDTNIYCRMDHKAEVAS
Description: as §1, §2

[3] = molecular target: T3, CEACAM5 expressed on the surface of HEK293 cells (human, UniProt P06731 35-685)
T3 construct: whole, on cells; GFP-tagged clone; also called CEACAM5-GFP
T3 sequence (looked up): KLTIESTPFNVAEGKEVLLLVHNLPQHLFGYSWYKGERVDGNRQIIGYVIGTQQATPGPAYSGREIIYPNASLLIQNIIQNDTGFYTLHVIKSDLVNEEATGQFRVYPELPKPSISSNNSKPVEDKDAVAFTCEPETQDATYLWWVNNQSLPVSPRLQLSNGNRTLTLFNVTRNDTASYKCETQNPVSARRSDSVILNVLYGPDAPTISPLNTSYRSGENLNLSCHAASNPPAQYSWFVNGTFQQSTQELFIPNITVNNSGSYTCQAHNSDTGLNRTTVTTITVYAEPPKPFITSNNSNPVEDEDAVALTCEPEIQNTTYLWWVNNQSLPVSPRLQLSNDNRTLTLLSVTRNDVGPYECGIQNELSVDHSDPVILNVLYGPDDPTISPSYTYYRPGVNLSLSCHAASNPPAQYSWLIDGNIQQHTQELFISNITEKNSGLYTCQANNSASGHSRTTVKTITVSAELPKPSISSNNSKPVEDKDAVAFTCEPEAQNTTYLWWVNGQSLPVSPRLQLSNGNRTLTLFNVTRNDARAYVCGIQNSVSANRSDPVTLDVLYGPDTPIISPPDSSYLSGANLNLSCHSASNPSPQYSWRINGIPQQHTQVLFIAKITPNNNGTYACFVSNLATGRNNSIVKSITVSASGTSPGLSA
Description: as §1, §2

binding result [1]: no binding
binding result [2]: no binding
binding result [3]: no binding
B1: C25 (antibody, human IgG4 S228P, lambda, V domains shown)
VH: EVQLLESGGGLVQPGGSLRLSCAASGFTFSNYAMSWVRQAPGKGLEWVSVISHGGGSIYYADSVKGRLTISRDNSKNTLYLQMNSLRAEDTAVYYCARDPTKGYAPTFDYWGQGTLVTVSS
VL: QSVLTQPPSASGTPGQRVTISCSGSSSNIGNNYVSWYQQLPGTAPKLLIYADSKRPSGVPDRFSGSKSGTSASLAISGLRSEDEADYYCGAWDASLNGYVFGGGTKLTVLG
notes: Made in ExpiHEK293F cells, protein A purified. huIgG4 is the isotype control and anti-huIgG4 the detection reagent; the isotype is not otherwise stated; also called anti-CEACAM1 antibody C25
